We go through 13 molecules from patent US20240207432A1 (BIOSION, published 2024).

To fix the notation:
T1: human TROP2-his protein (human, UniProt P09758 27-274)
T1 construct: Biotin-labelled in the ELISAs, unlabelled analyte in Biacore; also called biotin-labeled human TROP2-his protein; biotin human Trop2-his
T1 sequence: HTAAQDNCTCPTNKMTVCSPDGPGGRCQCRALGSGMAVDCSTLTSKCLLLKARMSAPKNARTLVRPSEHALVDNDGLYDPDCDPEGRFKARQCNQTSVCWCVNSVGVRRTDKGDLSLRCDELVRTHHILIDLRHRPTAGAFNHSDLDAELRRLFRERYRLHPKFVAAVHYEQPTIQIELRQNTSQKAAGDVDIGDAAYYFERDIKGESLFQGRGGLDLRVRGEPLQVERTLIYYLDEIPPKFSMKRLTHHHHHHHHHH

B1: huA1E4F7D4-V8 (antibody, human IgG1, kappa, V domains shown)
VH: QVQLVQSGAEVKKPGASVKVSCKASGYTFTTHWIHWVRQAPGQGLEWIGTIFPSNAYAVYNQKFRDRATMTADRSISTAYIELSRLRSDDTAVYYCARASYFDYWGQGTTVTVSS
VL: EIVLTQSPATLSLSPGERATLSCRASQNIGTSIHWFQQKPGQSPRLLIKYASESISGIPSRFSGSGSGTDFTLTISSLEPEDFAVYYCQHSHSWPFTFGQGTKLEIKR
notes: Positions of the X residues are given in the claims; Tested as cell supernatant
B2: huA1E4F7D4-V18 (antibody, human IgG1, kappa, V domains shown)
VH: QVQLVQSGAEVKKPGASVKVSCKASGYTFTTHWIHWVRQAPGQGLEWIGTIFPSNAYAVYNQKFRDRATMTADRSISTAYIELSRLRSDDTAVYYCARASYFDYWGQGTTVTVSS
VL: EIVLTQSPATLSLSPGERATLSCRASQNIGTSIHWFQQKPGGSPRLLIYYASESISGIPSRFSGSGSGTDFTLTISSLEPEDFAVYYCQHSHSWPFTFGQGTKLEIKR
notes: as for B1
B3: huA1E4F7D4-V10 (antibody, human IgG1, kappa, V domains shown)
VH: QVQLVQSGAEVKKPGASVKVSCKASGYSFTTHWIHWVRQAPGQGLEWIGTIFPSNAYAVYNQKFRDRATMTRDRSISTAYIELSRLRSDDTAVYYCARASYFDYWGQGTTVTVSS
VL: EIVLTQSPATLSLSPGERATLSCRASQNIGTSIHWFQQKPGQSPRLLIKYASESISGIPSRFSGSGSGTDFTLTISSLEPEDFAVYYCQHSHSWPFTFGQGTKLEIKR
notes: as for B1
B4: huA1E4F7D4-V21 (antibody, human IgG1, kappa, V domains shown)
VH: QVQLVQSGAEVKKPGASVKVSCKASGYSFTTHWIHWVRQAPGQGLEWIGTIFPSNAYAVYNQKFRDRATMTADTSISTAYIELSRLRSDDTAVYYCARASYFDYWGQGTTVTVSS
VL: EIVLTQSPATLSLSPGERATLSCRASQNIGTSIHWFQQKPGGSPRLLIYYASESISGIPSRFSGSGSGTDFTLTISSLEPEDFAVYYCQHSHSWPFTFGQGTKLEIKR
notes: as for B1
B5: huA1E4F7D4-V15 (antibody, human IgG1, kappa, V domains shown)
VH: QVQLVQSGAEVKKPGASVKVSCKASGYSFTTHWIHWVRQAPGQGLEWIGTIFPSNAYAVYNQKFRDRATMTRDRSISTAYIELSRLRSDDTAVYYCARASYFDYWGQGTTVTVSS
VL: EIVLTQSPATLSLSPGERATLSCRASQNIGTSIHWFQQKPGGAPRLLIKYASESISGIPSRFSGSGSGTDFTLTISSLEPEDFAVYYCQHSHSWPFTFGQGTKLEIKR
notes: as for B1
B6: huA1E4F7D4-V20 (antibody, human IgG1, kappa, V domains shown)
VH: QVQLVQSGAEVKKPGASVKVSCKASGYSFTTHWIHWVRQAPGQGLEWIGTIFPSNAYAVYNQKFRDRATMTRDRSISTAYIELSRLRSDDTAVYYCARASYFDYWGQGTTVTVSS
VL: EIVLTQSPATLSLSPGERATLSCRASQNIGTSIHWFQQKPGGSPRLLIYYASESISGIPSRFSGSGSGTDFTLTISSLEPEDFAVYYCQHSHSWPFTFGQGTKLEIKR
notes: as for B1
B7: huA1E4F7D4-V14 (antibody, human IgG1, kappa, V domains shown)
VH: QVQLVQSGAEVKKPGASVKVSCKASGYSFTTHWIHWVRQAPGQGLEWIGTIFPSNAYAVYNQKFRDRVTMTADRSISTAYIELSRLRSDDTAVYYCARASYFDYWGQGTTVTVSS
VL: EIVLTQSPATLSLSPGERATLSCRASQNIGTSIHWFQQKPGGAPRLLIKYASESISGIPSRFSGSGSGTDFTLTISSLEPEDFAVYYCQHSHSWPFTFGQGTKLEIKR
notes: as for B1
B8: huA1E4F7D4-V17 (antibody, human IgG1, kappa, V domains shown)
VH: QVQLVQSGAEVKKPGASVKVSCKASGYSFTTHWIHWVRQAPGQGLEWIGTIFPSNAYAVYNQKFRDRATMTADRSISTAYIELSRLRSDDTAVYYCARASYFDYWGQGTTVTVSS
VL: EIVLTQSPATLSLSPGERATLSCRASQNIGTSIHWFQQKPGGSPRLLIYYASESISGIPSRFSGSGSGTDFTLTISSLEPEDFAVYYCQHSHSWPFTFGQGTKLEIKR
notes: as for B1
B9: huA1E4F7D4-V9 (antibody, human IgG1, kappa, V domains shown)
VH: QVQLVQSGAEVKKPGASVKVSCKASGYSFTTHWIHWVRQAPGQGLEWIGTIFPSNAYAVYNQKFRDRVTMTADRSISTAYIELSRLRSDDTAVYYCARASYFDYWGQGTTVTVSS
VL: EIVLTQSPATLSLSPGERATLSCRASQNIGTSIHWFQQKPGQSPRLLIKYASESISGIPSRFSGSGSGTDFTLTISSLEPEDFAVYYCQHSHSWPFTFGQGTKLEIKR
notes: as for B1
B10: huA1E4F7D4-V12 (antibody, human IgG1, kappa, V domains shown)
VH: QVQLVQSGAEVKKPGASVKVSCKASGYSFTTHWIHWVRQAPGQGLEWIGTIFPSNAYAVYNQKFRDRATMTADRSISTAYIELSRLRSDDTAVYYCARASYFDYWGQGTTVTVSS
VL: EIVLTQSPATLSLSPGERATLSCRASQNIGTSIHWFQQKPGGAPRLLIKYASESISGIPSRFSGSGSGTDFTLTISSLEPEDFAVYYCQHSHSWPFTFGQGTKLEIKR
notes: as for B1
B11: huA1E4F7D4-V13 (antibody, human IgG1, kappa, V domains shown)
VH: QVQLVQSGAEVKKPGASVKVSCKASGYTFTTHWIHWVRQAPGQGLEWIGTIFPSNAYAVYNQKFRDRATMTADRSISTAYIELSRLRSDDTAVYYCARASYFDYWGQGTTVTVSS
VL: EIVLTQSPATLSLSPGERATLSCRASQNIGTSIHWFQQKPGGAPRLLIKYASESISGIPSRFSGSGSGTDFTLTISSLEPEDFAVYYCQHSHSWPFTFGQGTKLEIKR
notes: as for B1
B12: huA1E4F7D4-V19 (antibody, human IgG1, kappa, V domains shown)
VH: QVQLVQSGAEVKKPGASVKVSCKASGYSFTTHWIHWVRQAPGQGLEWIGTIFPSNAYAVYNQKFRDRVTMTADRSISTAYIELSRLRSDDTAVYYCARASYFDYWGQGTTVTVSS
VL: EIVLTQSPATLSLSPGERATLSCRASQNIGTSIHWFQQKPGGSPRLLIYYASESISGIPSRFSGSGSGTDFTLTISSLEPEDFAVYYCQHSHSWPFTFGQGTKLEIKR
notes: as for B1
B13: huA1E4F7D4-V11 (antibody, human IgG1, kappa, V domains shown)
VH: QVQLVQSGAEVKKPGASVKVSCKASGYSFTTHWIHWVRQAPGQGLEWIGTIFPSNAYAVYNQKFRDRATMTADTSISTAYIELSRLRSDDTAVYYCARASYFDYWGQGTTVTVSS
VL: EIVLTQSPATLSLSPGERATLSCRASQNIGTSIHWFQQKPGQSPRLLIKYASESISGIPSRFSGSGSGTDFTLTISSLEPEDFAVYYCQHSHSWPFTFGQGTKLEIKR
notes: as for B1

The target of this experiment is T1, human TROP2-his protein. The experiment in a line: SPR Biacore T200, supernatant antibody captured on anti-human IgG CM5 chip, 40 nM human TROP2-his. As for the experimental part:
The goat anti-human IgG (GE healthcare, Cat #BR100839, Human Antibody Capture Kit) was covalently linked to a CM5 chip instead of goat anti-mouse IgG. […] The human TROP2-his protein at the concentration of 40 nM was used instead of serially diluted human TROP2-his protein.
B1 displayed a dissociation constant Kd of 0.235 nM, a koff of 0.000195 s⁻¹ and a kon of 832000 M⁻¹ s⁻¹.

B2 registered a Kd of 0.23 nM, a koff of 0.00028 s⁻¹ and a kon of 1.22e+06 M⁻¹ s⁻¹.

B3 registered a Kd of 0.314 nM, a koff of 0.000206 s⁻¹ and a kon of 656000 M⁻¹ s⁻¹.

The molecule B4 returned a Kd of 0.188 nM, a koff of 0.000271 s⁻¹ and a kon of 1.44e+06 M⁻¹ s⁻¹.

B5 had a Kd of 0.359 nM, a koff of 0.000205 s⁻¹ and a kon of 571000 M⁻¹ s⁻¹.

B6 showed a Kd of 0.335 nM, a koff of 0.00029 s⁻¹ and a kon of 868000 M⁻¹ s⁻¹.

Take B7: binding was characterised by a dissociation constant (Kd) of 0.232 nM, the dissociation rate constant (koff) stood at 0.000193 s⁻¹ and the kon was determined as 834000 M⁻¹ s⁻¹.

B8 gave a Kd of 0.232 nM, an off-rate (koff) of 0.000279 s⁻¹ and a kon of 1.2e+06 M⁻¹ s⁻¹.

B9 returned a Kd of 0.223 nM, a koff of 0.000193 s⁻¹ and a kon of 865000 M⁻¹ s⁻¹.

With B10, the Kd came to 0.211 nM, the koff was found to be 0.000192 s⁻¹ and the kon is 909000 M⁻¹ s⁻¹.

B11 registered a Kd of 0.221 nM, a koff of 0.000199 s⁻¹ and a kon of 898000 M⁻¹ s⁻¹.

In turn, B12 registered a Kd of 0.261 nM, a koff of 0.000304 s⁻¹ and a kon of 1.16e+06 M⁻¹ s⁻¹.

For B13, the affinity, expressed as Kd, was 0.163 nM; the koff was determined as 0.000175 s⁻¹; the kon worked out at 1.08e+06 M⁻¹ s⁻¹.
